First the molecules themselves.
B1: LINE1-full (parent)
chain: UACGUAGGUGGUUUUCCCCUGAUAGUGCUAAGGGGGCCUGGAAGUUUGGACUGGGCAGAGCUCAACACAGCGUGGCAAAGUGGCUGUGGCUAGACUGCCUCUCUGGAUUCCUCGUCACUCAGCAGGGCAUCUCUGAGAGAAAUGCC

The variants in the data set derive from B1. In words: self-cleavage, relative activity (ratio to wild type); higher = more cleavage; in vitro, sequencing; the parent is a self-cleaving ribozyme.
As for A43U G82A, the self-cleavage came to 1.4.
Under A43G A69U stands 0.08; under A43G A69G, 0.58; under A42G U62C, 0.08.
Under A43U U85C stands 0.16.
As to U45A U143A, the self-cleavage turned out to be 1.21.
Under A43C U112C stands 2.1; under A43G A92G, 0.22.
The value for A42G C101A was 0.95.
A42G A142G: the self-cleavage amounted to 1.48.
The value for A43U G53C was 1.03; that for A42U A50G was 0.92.
With A42G G83A, the self-cleavage came out at 0.96.
Under A42G A136U stands 1.4; under A42G A136G, 1.53.
Under U45A A64U stands 0.37; under A43G G125A, 1.24; under A43G G125U, 1.02.
Under G44A C113U stands 1.8; under A42U U46C, 1.37.
In the case of A42U U104A, the self-cleavage came out at 1.15.
Under A42U A65G stands 0.06; under A43C U119C, 1.62.
Under A42U stands 0.98; under A42G, 1.38; under U45A A129G, 1.26.
The value for A42G G89A was 0.03; that for A42G G89C was 0; that for A42G G89U was 0.02.
On to U45A A78U, for which the self-cleavage amounted to 1.99.
Under A42G G88A stands 0.09; under A43U A77G, 2.1; under A43G U100A, 0.89.
The value for A42U U91C was 0.27; that for A42G G139A was 1.28; that for A42G A69C was 0.06.
The value for A42G A69U was 0.04; that for G44C U115A was 1.77.
In the case of A42G G74A, the self-cleavage worked out at 0.8.
Under A43U U96A stands 0.12; under A42U U134C, 1.34; under A42U U134A, 1.09.
The value for A42U U132C was 1.01; that for A43G C146A was 1.09.
Under A43U U102G stands 0.75.
In the case of A43U U102C, the self-cleavage is 0.25.
Under G44A U109C stands 1.09.
The value for A43G U87G was 0.16; that for A43G U87A was 0.08.
Under A42U G53A stands 1.72.
Consider U45A A124G, for which the self-cleavage turned out to be 0.41.
Under G44A A79U stands 1.89; under G44A A79G, 0.99; under U45A G60A, 0.03.
The value for U45C A57G was 0.7; that for U45C A57U was 0.11; that for G44U was 1.56.
Under G44C stands 1.22; under G44A, 1.21.
With A42G G122A, the self-cleavage was 0.92.
Under U45A A77G stands 1.56.
Regarding A43G A65U, the self-cleavage came to 0.15.
As for A43G A65C, the self-cleavage was found to be 0.
The value for A43G A65G was 0.09.
The value for A43U A94G was 0.12.
A42U A67G: the self-cleavage came out at 0.21.
The value for A42U U119A was 0.98; that for A42U C84U was 0.09; that for U45A A136G was 2.
The value for U45A U130A was 1.38; that for A43C A92G was 0.18; that for A42G C128U was 1.28.
Turning to A42G U46A, the self-cleavage amounted to 1.11.
For the variant A42G U46G, the self-cleavage is 1.02.
The value for A43G G58A was 0.05.
The value for A42G G44A was 1.27; that for G44A A141G was 1.42; that for U45A U132C was 1.93.
Under A43U A64G stands 0.42; under U45C A78G, 1.31.
For the variant A43U U45G, the self-cleavage amounted to 2.34.
Turning to A43G A141U, the self-cleavage came out at 1.61.
Under A43G A141G stands 1.29.
Under A43G G89U stands 0.04; under G44A U62C, 0.02; under A42G U143C, 1.3.
As to A42G U143A, the self-cleavage was determined as 1.85.
The value for A42G C71G was 0.35; that for G44A U132C was 1.31; that for A42G C99U was 1.11.
Under A43U G54A stands 0.56; under U45A A107G, 1.44.
Under U45A U108C stands 1.48.
For A42G A59G, the self-cleavage turned out to be 0.11.
The value for A42G G144A was 1.17; that for A42G A129G was 1.68; that for U45C A67U was 0.12.
Under A43C U45G stands 0.66; under A43C U45C, 0.51; under A42G A65U, 0.32.
Under A43U U46G stands 1.37.
In the case of A43U U46C, the self-cleavage stood at 1.23.
Under A43G G83A stands 1.03; under A43U U47C, 2.03.
Under A43U U47A stands 1.44; under A42U U45A, 0.95.
Turning to A43U A50G, the self-cleavage is 1.29.
Under A43U G58A stands 0.05.
The value for G44C A141G was 1.03; that for G44U A64G was 0.12.
Consider A42G U96G, for which the self-cleavage turned out to be 0.
As for A42G U96C, the self-cleavage came to 0.12.
Under A42G A121G stands 1.59; under A42G A121U, 1.4; under U45A U109A, 0.94.
Consider A43U A59G, for which the self-cleavage is 0.03.
Turning to A42G G106U, the self-cleavage turned out to be 1.1.
The value for A43G C63G was 0.1; that for A43G A121U was 1.23; that for A43G A121G was 1.12.
As for A43G U52G, the self-cleavage amounted to 1.64.
For A43G G127U, the self-cleavage was found to be 1.87.
Under A43C stands 1.35; under A43G, 1.21.
Under A43U stands 1.26.
Under A42G G127U stands 1.9; under A42G A124C, 2.96.
A42G A124G: the self-cleavage worked out at 0.87.
For the variant A43G U132A, the self-cleavage came out at 1.55.
The value for A43G U132C was 1.1; that for G44A C90G was 0.01; that for A43C A79G was 0.75.
The value for A43G A140G was 1.35; that for A43G G126U was 1.28.
Take A42G U115C: the self-cleavage was 1.67.
For A42G U119C, the self-cleavage was found to be 1.35.
The value for A42C U134A was 0.83; that for A42U U85C was 0.13; that for A43G U91A was 0.89.
Under A43U U143C stands 0.51; under A42U U52C, 0.54; under U45A A57G, 1.01.
As to U45A A57U, the self-cleavage came to 0.08.
Under U45A A94U stands 0.2.
The value for U45A A94G was 0.05; that for A42U U87A was 0.07; that for A42G U102C was 1.36.
The value for A43U A117G was 1.25; that for A43G U47A was 0.96.
For the variant A42G U47C, the self-cleavage stood at 1.54.
Under A42G U47G stands 0.88; under A43U U119C, 1.17.
Under A43G C123U stands 1.21.
Under A43C A65U stands 0.14.
Turning to U45C, the self-cleavage is 1.36.
Under U45A stands 1.21; under A42U A142U, 0.57; under A42G A141G, 1.38.
The value for A42G G82A was 1.95.
As to A43G A67C, the self-cleavage was found to be 0.05.
Consider A43G A67G, for which the self-cleavage worked out at 0.46.
The value for A43U G89A was 0.06; that for A42U C120U was 0.4.
Turning to A43U U132C, the self-cleavage turned out to be 1.26.
Under U45C A79C stands 1.23; under U45A G89C, 0.31; under A42G G80C, 0.62.

Values taken from the RNAGym collection of RNA variant scans (doi:10.7554/elife.90254).
